{"source": "patent US20220017627A1", "key": {"[1]": {"target": "human IL-7Rα expressed on non-T cells (CD3- cells, monocytes) (human) (UniProt P16871)", "test": "cell-based or functional assay"}, "[2]": {"target": "T1, hIL-7R (Example 11) (human) (UniProt P16871)", "T1 sequence": "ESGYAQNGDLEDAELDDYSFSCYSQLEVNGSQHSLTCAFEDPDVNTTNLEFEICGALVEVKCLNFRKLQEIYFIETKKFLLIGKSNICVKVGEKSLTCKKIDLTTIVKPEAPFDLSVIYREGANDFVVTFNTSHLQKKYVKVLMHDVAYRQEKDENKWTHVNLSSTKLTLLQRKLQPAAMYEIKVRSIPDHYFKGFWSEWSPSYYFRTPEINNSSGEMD", "test": "NGS enrichment ratio of the mutation in the scFv library selected at 0.2 nM hIL-7R"}, "[3]": {"target": "T1, hIL-7R (Example 11) (human)", "test": "SPR (Biacore), ratio KD of parent 18B1 to KD of variant"}, "[4]": {"target": "T1, hIL-7R (Example 11) (human)", "test": "SPR at 37C"}, "[5]": {"target": "T1, hIL-7R (Example 11) (human)", "test": "NGS enrichment ratio, parental scFv, reference of the normalisation [cont'd]"}}, "data": [{"binder": "Anti-IL-7R Antibody (Antibody A) (antibody, human IgG1, kappa, V domains shown) VH: EVQLVESGGGLVQPGRSLRLSCAASGFTFDDHAMHWVRQAPGKGLEWVSGISWNSRGIGYADSVKGRFTIFRDNAKNSLYLQMNSLRAEDTALYYCAKDEYSRGYYVLDVWGQGTTVTVSS VL: AIQLTQSPSSLSASVGDRVTITCRASQGISSALAWYQQKPGKAPKLLIYDASSLESGVPSRFSGSGSGTDFTLTISSLQPEDFATYYCQQFNSYPLWITFGQGTRLEIKR", "values": [{"measurement": "MCP1 Production IC50, purified monocytes, TSLP", "setting": "[1]", "result": 24, "unit": "nM"}]}, {"binder": "18B1 LC L95aA (antibody, V domains shown) VH: EVQLVESGGGLVQPGRSLRLSCAASGFTFDDHAMHWVRQAPGKGLEWVSGISWNSRGIGYADSVKGRFTIFRDNAKNSLYLQMNSLRAEDTALYYCAKDEYSRGYYVLDVWGQGTTVTVSS VL: AIQLTQSPSSLSASVGDRVTITCRASQGISSALAWYQQKPGKAPKLLIYDASSLESGVPSRFSGSGSGTDFTLTISSLQPEDFATYYCQQFNSYPAWITFGQGTRLEIKR", "values": [{"measurement": "0.2 nM NGS", "setting": "[2]", "result": 0.01}, {"measurement": "KD Relative to 18B1", "setting": "[3]", "result": 0.01}]}, {"binder": "18B1 scFv (scFv, V domains shown, not shown: small tags and cut ends, linker; domain order unknown) VH: EVQLVESGGGLVQPGRSLRLSCAASGFTFDDHAMHWVRQAPGKGLEWVSGISWNSRGIGYADSVKGRFTIFRDNAKNSLYLQMNSLRAEDTALYYCAKDEYSRGYYVLDVWGQGTTVTVSS VL: AIQLTQSPSSLSASVGDRVTITCRASQGISSALAWYQQKPGKAPKLLIYDASSLESGVPSRFSGSGSGTDFTLTISSLQPEDFATYYCQQFNSYPLWITFGQGTRLEIK", "values": [{"measurement": "Kd", "setting": "[4]", "result": 1.3, "unit": "nM"}, {"measurement": "koff", "setting": "[4]", "result": 0.000403, "unit": "s⁻¹"}, {"measurement": "kon", "setting": "[4]", "result": 311000, "unit": "M⁻¹ s⁻¹"}, {"measurement": "0.2 nM NGS", "setting": "[5]", "result": 1}]}, {"binder": "18B1 LC Y94A (antibody, human IgG1, kappa, V domains shown) VH: EVQLVESGGGLVQPGRSLRLSCAASGFTFDDHAMHWVRQAPGKGLEWVSGISWNSRGIGYADSVKGRFTIFRDNAKNSLYLQMNSLRAEDTALYYCAKDEYSRGYYVLDVWGQGTTVTVSS VL: AIQLTQSPSSLSASVGDRVTITCRASQGISSALAWYQQKPGKAPKLLIYDASSLESGVPSRFSGSGSGTDFTLTISSLQPEDFATYYCQQFNSAPLWITFGQGTRLEIKR", "values": [{"measurement": "0.2 nM NGS", "setting": "[2]", "result": 0.01}, {"measurement": "KD Relative to 18B1", "setting": "[3]", "result": 0.01}]}]}
